These are literature values, as cited in paper PMC3125604.

The data set addresses Prolactin receptor (site 2) (Homo sapiens) (UniProt P16471). Description: surface plasmon resonance. Background: SPR reads the build-up and loss of mass on a sensor chip optically.
UniProt P16471, sequence (P16471 25-234): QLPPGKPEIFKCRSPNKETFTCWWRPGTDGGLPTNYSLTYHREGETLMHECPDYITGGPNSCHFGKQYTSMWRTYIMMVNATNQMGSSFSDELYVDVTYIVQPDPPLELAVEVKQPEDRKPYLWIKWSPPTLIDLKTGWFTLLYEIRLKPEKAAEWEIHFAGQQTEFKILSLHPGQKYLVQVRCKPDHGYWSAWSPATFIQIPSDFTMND

In general, Kd refers to the equilibrium constant for the complex coming apart. Regarding Prolactin (hPRL) (from UniProt P01236), the dissociation constant Kd is 33 µM.
